This note sets out measurements from patent US20250249039A1 (published 2025).

The assay addresses T1, PRAME peptide on HLA-A*02:01 (human).
T1 peptide: SLLQHLIGL
Put plainly: multimer staining.

B1: PRAME-425-358 (TCR, V domains shown)
Valpha: QQPVQSPQAVILREGEDAVINCSSSKALYSVHWYRQKHGEAPVFLMILLKGGEQKGHDKISASFNEKKQQSSLYLTASQLSYSGTYFCGTEGTGDYKLSFGAGTTVTVRA
Vbeta: EAQVTQNPRYLITVTGKKLTVTCSQNMNHEYMSWYRQDPGLGLRQIYYSMNVEVTDKGDVPEGYKVSRKEKRNFPLILESPSPNQTSLYFCASSAGTGGHEQYFGPGTRLTVT
With B1, the binding result is “recognises”.
